# Measurements as given in PMC5987714 (The Journal of Cell Biology, 2018).
# T1: mCherry-CAV1^Y14-p (CAV1 + ABL1 coexpression) (UniProt Q03135 1-178)
# T1 sequence: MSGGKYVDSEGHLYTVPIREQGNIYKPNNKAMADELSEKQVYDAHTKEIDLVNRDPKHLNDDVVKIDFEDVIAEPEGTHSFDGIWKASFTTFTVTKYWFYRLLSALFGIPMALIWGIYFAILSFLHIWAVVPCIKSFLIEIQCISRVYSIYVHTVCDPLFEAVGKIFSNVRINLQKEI
# T2: mCherry-CAV1^FL (caveolin-1, full length, amino acids 1–178) in cell-free caveolae (UniProt Q03135 1-178)
# T2 sequence: T1 sequence
# B1: GFP-TRAF2 (TNF receptor–associated factor 2), cell-free (natural protein)
# chain: MAAASVTPPGSLELLQPGFSKTLLGTKLEAKYLCSACRNVLRRPFQAQCGHRYCSFCLASILSSGPQNCAACVHEGIYEEGISILESSSAFPDNAARREVESLPAVCPSDGCTWKGTLKEYESCHEGRCPLMLTECPACKGLVRLGEKERHLEHECPERSLSCRHCRAPCCGADVKAHHEVCPKFPLTCDGCGKKKIPREKFQDHVKTCGKCRVPCRFHAIGCLETVEGEKQQEHEVQWLREHLAMLLSSVLEAKPLLGDQSHAGSELLQRCESLEKKTATFENIVCVLNREVERVAMTAEACSRQHRLDQDKIEALSSKVQQLERSIGLKDLAMADLEQKVLEMEASTYDGVFIWKISDFARKRQEAVAGRIPAIFSPAFYTSRYGYKMCLRIYLNGDGTGRGTHLSLFFVVMKGPNDALLRWPFNQKVTLMLLDQNNREHVIDAFRPDVTSSSFQRPVNDMNIASGCPLFCPVSKMEAKNSYVRDDAIFIKAIVDLTGL
# What was measured:
# TRAF2 = TRAF2 (UniProt Q12933); assay: two-color single-molecule coincidence; details: reference: no ABL1; sites Y14
# [1] = target: T1, mCherry-CAV1^Y14-p (CAV1 + ABL1 …); assay: two-color single-molecule fluorescence coincidence
# [2] = target: T2, mCherry-CAV1^FL (caveolin-1, full …); assay: two-color single-molecule fluorescence coincidence
Molecule,other: position of coincidence peak (TRAF2),"coincidence C = mCherry/(GFP+mCherry), Gaussian peak [1]",stoichiometry N [1],"coincidence C = mCherry/(GFP+mCherry), Gaussian peak [2]"
CAV1 (caveolin-1; cell-free and transfected constructs) 1-178 (from UniProt Q03135) untagged ABL1 coexpressed,stronger; reference 0.75,–,–,–
B1,–,0.6,~1 mCherry-CAV1:GFP-TRAF2,0.75
